Data: patent US8734776B2 (ZymoGenetics, Inc., priority 2003, dated 2014)

How the values were obtained:
[1] = test system: encephelomyocarditis virus; test: Antiviral assay: cytopathic effect in L929 cells; type: cell-based, mouse
[2] = test system: encephelomyocarditis virus; test: Antiviral assay: cytopathic effect in HeLa cells; type: cell-based, human
[3] = relative CM concentration .008X
[4] = relative CM concentration .0156X
[5] = relative CM concentration .0325X
[6] = relative CM concentration .0625X
[7] = relative CM concentration .125X

B1: zcyto25: mouse IL-28, SEQ ID NO:10 (protein, listed as Mus musculus)
chain: MKPETAGGHMLLLLLPLLLAAVLTRTQADPVPRATRLPVEAKDCHIAQFKSLSPKELQAFKKAKGAIEKRLLEKDMRCSSHLISRAWDLKQLQVQERPKALQAEVALTLKVWENINDSALTTILGQPLHTLSHIHSQLQTCTQLQATAEPKPPSRRLSRWLHRLQEAQSKETPGCLEDSVTSNLFQLLLRDLKCVASGDQCV
modifications: SIGNAL (1)...(28)
In the case of B1, the “Percentage Cytopathic Effect” value ([1]; relative CM conc. .008X) is reported as 87%, the “Percentage Cytopathic Effect” value ([1]; relative CM conc. .0156X) is reported as 87% and the “Percentage Cytopathic Effect” value ([1]; relative CM conc. .0325X) is reported as 87%. The “Percentage Cytopathic Effect” value ([1]; relative CM conc. .0625X) was 87%, the “Percentage Cytopathic Effect” value ([1]; relative CM conc. .125X) was 87% and the “Percentage Cytopathic Effect” value ([1]; relative CM conc. .25X) was 87%. The “Percentage Cytopathic Effect” value ([1]; relative CM conc. .5X) was 87%, the “Percentage Cytopathic Effect” value [2, 3] was 10% and the “Percentage Cytopathic Effect” value [2, 4] was 5%. For the same molecule, the “Percentage Cytopathic Effect” value [2, 5] was 5%, the “Percentage Cytopathic Effect” value [2, 6] was 0% and the “Percentage Cytopathic Effect” value [2, 7] was 0%. The “Percentage Cytopathic Effect” value ([2]; relative CM concentration .25X) was 0% and the “Percentage Cytopathic Effect” value ([2]; relative CM concentration .5X) was 0%.

B2: IL-28B: human IL-28B, previously designated zcyto22, SEQ ID NO:6 (protein, listed as Homo sapiens)
chain: MKLDMTGDCMPVLVLMAAVLTVTGAVPVARLRGALPDARGCHIAQFKSLSPQELQAFKRAKDALEESLLLKDCKCRSRLFPRTWDLRQLQVRERPVALEAELALTLKVLEATADTDPALGDVLDQPLHTLHHILSQLRACIQPQPTAGPRTRGRLHHWLHRLQEAPKKESPGCLEASVTFNLFRLLTRDLNCVASGDLCV
modifications: SIGNAL (1)...(25)
With B2 the “Percentage Cytopathic Effect” value ([1]; relative CM conc. .008X) was 87%, the “Percentage Cytopathic Effect” value ([1]; relative CM conc. .0156X) was 87% and the “Percentage Cytopathic Effect” value ([1]; relative CM conc. .0325X) was 87%. For the same molecule, the “Percentage Cytopathic Effect” value ([1]; relative CM conc. .0625X) was 87%, the “Percentage Cytopathic Effect” value ([1]; relative CM conc. .125X) was 87% and the “Percentage Cytopathic Effect” value ([1]; relative CM conc. .25X) was 87%. The “Percentage Cytopathic Effect” value ([1]; relative CM conc. .5X) was 87%, the “Percentage Cytopathic Effect” value [2, 3] was 0% and the “Percentage Cytopathic Effect” value [2, 4] was 0%. For the same molecule, the “Percentage Cytopathic Effect” value [2, 5] was 0%, the “Percentage Cytopathic Effect” value [2, 6] was 0% and the “Percentage Cytopathic Effect” value [2, 7] was 0%. For the same molecule, the “Percentage Cytopathic Effect” value ([2]; relative CM concentration .25X) was 0% and the “Percentage Cytopathic Effect” value ([2]; relative CM concentration .5X) was 0%.
